Measured values taken from US20170210813A1 (Regeneron, published 2017).
Each block holds one binder with its values, some of them ahead of it.

Key:
[1] = target: T1, hPDGFRb.mmh (human, UniProt P09619 33-531); experiment: SPR, mAb captured, 25 C
T1 construct: Soluble monomeric construct; also called soluble human PDGFR-beta.mmh
Experimental: (§1) Antibodies, expressed as either mouse Fc (prefix H1M; H2M) or human Fc (prefix H4H), were captured on their respective anti-Fc sensor surfaces (Mab capture format). […] Kinetic association (kₐ) and dissociation (kd) rate constants were determined by processing and fitting the data to a 1:1 binding model using Scrubber 2.0 curve fitting software.

[2] = target: T2, human PDGFRb.hFc (human); experiment: SPR, mAb captured, 25 C
T2 construct: Soluble dimeric construct with human Fc; also called hPDGFRb.hFc
Experimental: as §1

[3] = target: T3, Macaca fascicularis PDGFRb.mmh (Macaca fascicularis); experiment: SPR, mAb captured, 25 C
T3 construct: Soluble monomeric construct; also called mfPDGFRb.mmh
T3 chain: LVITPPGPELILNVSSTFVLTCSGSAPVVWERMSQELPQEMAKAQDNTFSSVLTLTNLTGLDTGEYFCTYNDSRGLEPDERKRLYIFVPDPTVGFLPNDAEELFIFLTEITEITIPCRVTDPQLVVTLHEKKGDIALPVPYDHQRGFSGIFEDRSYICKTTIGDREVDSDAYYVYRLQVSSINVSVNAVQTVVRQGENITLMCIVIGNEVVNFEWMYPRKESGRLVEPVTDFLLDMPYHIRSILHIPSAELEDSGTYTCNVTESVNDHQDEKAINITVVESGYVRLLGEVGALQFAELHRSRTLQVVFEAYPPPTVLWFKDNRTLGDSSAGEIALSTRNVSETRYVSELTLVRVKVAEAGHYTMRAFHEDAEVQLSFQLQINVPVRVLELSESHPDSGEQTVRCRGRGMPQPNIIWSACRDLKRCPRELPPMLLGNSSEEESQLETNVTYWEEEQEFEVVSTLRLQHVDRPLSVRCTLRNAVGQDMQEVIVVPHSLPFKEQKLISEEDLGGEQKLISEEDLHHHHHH
Experimental: as §1

[4] = target: T1, hPDGFRb.mmh; experiment: blocking ELISA, biot-hPDGFRb.mmh to coated PDGF-BB
[5] = target: T4, full length human PDGFR-beta on HEK293 cells (human, UniProt P09619 33-1106); experiment: cell-based or functional assay
[6] = target: T1, hPDGFRb.mmh; experiment: Octet BLI cross-competition, 25 C; hPDGFRb.mmh on anti-Penta-His tips pre-saturated with mAb-1 H4H3374N (row 3)
Experimental: (§2) A cross-competition assay was conducted to assess the ability of select antibodies to compete with one another for binding to human PDGFR-beta. […] Each PDGFR-beta.mmh-coated sensor tip was saturated for 5 min with a first anti-PDGFR-beta antibody (Mab #1; 50 μg/mL). Next, each sensor tip was saturated with a solution of a second anti-PDGFR-beta antibody (Mab #2). The real time response of Mab #2 binding to PDGR-beta.mmh pre-complexed with Mab #1 was then monitored. All assays were performed at 25° C. with a flow rate of 1000 rpm on an Octet RED384 biosensor in Octet HBST buffer according to manufacturer's instructions (ForteBio Corp., Menlo Park, Calif.). Results are illustrated in FIG. 2.

[7] = target: T1, hPDGFRb.mmh; experiment: Octet BLI cross-competition, 25 C; hPDGFRb.mmh on anti-Penta-His tips pre-saturated with mAb-1 H4H3107S (row 7)
Experimental: as §2

[8] = target: T1, hPDGFRb.mmh; experiment: Octet BLI cross-competition, 25 C; hPDGFRb.mmh on anti-Penta-His tips pre-saturated with mAb-1 H4H3103S (row 4)
Experimental: as §2

[9] = target: T4, full length human PDGFR-beta on HEK293 …; experiment: cell-based or functional assay; remark: listed apart in the source
[10] = target: T1, hPDGFRb.mmh; experiment: Octet BLI cross-competition, 25 C; hPDGFRb.mmh on anti-Penta-His tips pre-saturated with mAb-1 H4H3099S (row 6)
Experimental: as §2

[11] = target: T1, hPDGFRb.mmh; experiment: SPR, mAb captured, 37 C
Experimental: as §1

[12] = target: T2, human PDGFRb.hFc; experiment: SPR, mAb captured, 37 C
Experimental: as §1

[13] = target: T3, Macaca fascicularis PDGFRb.mmh; experiment: SPR, mAb captured, 37 C
Experimental: as §1

[14] = target: T1, hPDGFRb.mmh; experiment: Octet BLI cross-competition, 25 C; hPDGFRb.mmh on anti-Penta-His tips pre-saturated with mAb-1 H4H3310N (row 9)
Experimental: as §2

[15] = target: T1, hPDGFRb.mmh; experiment: Octet BLI cross-competition, 25 C; hPDGFRb.mmh on anti-Penta-His tips pre-saturated with mAb-1 H4H3305N (row 8)
Experimental: as §2

[16] = target: T1, hPDGFRb.mmh; experiment: Octet BLI cross-competition, 25 C; hPDGFRb.mmh on anti-Penta-His tips pre-saturated with mAb-1 H4H3094P (row 5)
Experimental: as §2

[17] = target: T1, hPDGFRb.mmh; experiment: Octet BLI cross-competition, 25 C; hPDGFRb.mmh on anti-Penta-His tips pre-saturated with mAb-1 H4H3365N (row 2)
Experimental: as §2

[18] = target: T1, hPDGFRb.mmh; experiment: Octet BLI cross-competition, 25 C; hPDGFRb.mmh on anti-Penta-His tips pre-saturated with mAb-1 Control I (row 1)
Experimental: as §2

Kd [1]: 1.66 nM
koff [1]: 0.000142 s⁻¹
kon [1]: 85300 M⁻¹ s⁻¹
t1/2 [1]: 81 min
Kd [2]: 0.244 nM
koff [2]: 4.55e-05 s⁻¹
kon [2]: 184000 M⁻¹ s⁻¹
t1/2 [2]: 254 min
Kd [3]: 1.7 nM
koff [3]: 0.00015 s⁻¹
kon [3]: 88300 M⁻¹ s⁻¹
t1/2 [3]: 77 min
% Maximum Blocking [4]: 87%
IC50 [4]: 0.37 nM
IC50, blocking PDGF-BB (250 pM) activation, SRE-luciferase [5]: 2.3e-10 M
IC50, blocking PDGF-DD (400 pM) activation, SRE-luciferase [5]: 3.7e-10 M
Response of mAb-2 Binding to hPDGFRβ.mmh Pre-Complexed with mAb-1 (nm) [6]: 0.01 nm
Response of mAb-2 Binding to hPDGFRβ.mmh Pre-Complexed with mAb-1 (nm) [7]: 0.26 nm
Response of mAb-2 Binding to hPDGFRβ.mmh Pre-Complexed with mAb-1 (nm) [8]: 0.01 nm
Percent Internalization (Relative to Control I) [9]: 65%
Response of mAb-2 Binding to hPDGFRβ.mmh Pre-Complexed with mAb-1 (nm) [10]: 0.29 nm
Kd [11]: 5.38 nM
koff [11]: 0.00102 s⁻¹
kon [11]: 190000 M⁻¹ s⁻¹
t1/2 [11]: 11 min
Kd [12]: 1.05 nM
koff [12]: 0.000264 s⁻¹
kon [12]: 250000 M⁻¹ s⁻¹
t1/2 [12]: 44 min
Kd [13]: 5.06 nM
koff [13]: 0.00101 s⁻¹
kon [13]: 200000 M⁻¹ s⁻¹
t1/2 [13]: 11 min
Response of mAb-2 Binding to hPDGFRβ.mmh Pre-Complexed with mAb-1 (nm) [14]: 0.28 nm
Response of mAb-2 Binding to hPDGFRβ.mmh Pre-Complexed with mAb-1 (nm) [15]: 0.28 nm
Response of mAb-2 Binding to hPDGFRβ.mmh Pre-Complexed with mAb-1 (nm) [16]: 0 nm
B1: H4H3365N (antibody, human IgG4, V domains shown)
VH: EVQLVESGGGLVQPGRSLRLSCAASGFTFDDFAMHWVRQVPGKGLEWVSGISWSSGTIGYVGSVKGRFTISRDNAKNSLYLQMNSLRAEDTAMYFCTKDKAAFHDAFDIWGQGTMVTVSS
VL: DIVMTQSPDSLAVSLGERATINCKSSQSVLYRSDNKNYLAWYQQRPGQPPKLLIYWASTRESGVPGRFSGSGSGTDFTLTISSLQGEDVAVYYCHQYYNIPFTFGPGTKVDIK
notes: human IgG4 Fc (H4H prefix)

Kd [1]: 3.13 nM
koff [1]: 0.00105 s⁻¹
kon [1]: 335000 M⁻¹ s⁻¹
t1/2 [1]: 11 min
Kd [2]: 0.264 nM
koff [2]: 0.000164 s⁻¹
kon [2]: 621000 M⁻¹ s⁻¹
t1/2 [2]: 70 min
Kd [3]: 3.24 nM
koff [3]: 0.00116 s⁻¹
kon [3]: 359000 M⁻¹ s⁻¹
t1/2 [3]: 10 min
% Maximum Blocking [4]: 90%
IC50 [4]: 0.24 nM
IC50, blocking PDGF-BB (250 pM) activation, SRE-luciferase [5]: 2e-10 M
IC50, blocking PDGF-DD (400 pM) activation, SRE-luciferase [5]: 2.6e-10 M
Response of mAb-2 Binding to hPDGFRβ.mmh Pre-Complexed with mAb-1 (nm) [6]: 0.01 nm
Response of mAb-2 Binding to hPDGFRβ.mmh Pre-Complexed with mAb-1 (nm) [7]: 0.24 nm
Response of mAb-2 Binding to hPDGFRβ.mmh Pre-Complexed with mAb-1 (nm) [17]: 0.02 nm
Percent Internalization (Relative to Control I) [9]: 87%
Response of mAb-2 Binding to hPDGFRβ.mmh Pre-Complexed with mAb-1 (nm) [10]: 0.26 nm
Kd [11]: 10.1 nM
koff [11]: 0.00497 s⁻¹
kon [11]: 492000 M⁻¹ s⁻¹
t1/2 [11]: 2 min
Kd [12]: 0.405 nM
koff [12]: 0.000306 s⁻¹
kon [12]: 757000 M⁻¹ s⁻¹
t1/2 [12]: 38 min
Kd [13]: 10.2 nM
koff [13]: 0.00556 s⁻¹
kon [13]: 544000 M⁻¹ s⁻¹
t1/2 [13]: 2 min
Response of mAb-2 Binding to hPDGFRβ.mmh Pre-Complexed with mAb-1 (nm) [14]: 0.25 nm
Response of mAb-2 Binding to hPDGFRβ.mmh Pre-Complexed with mAb-1 (nm) [15]: 0.26 nm
Response of mAb-2 Binding to hPDGFRβ.mmh Pre-Complexed with mAb-1 (nm) [16]: 0 nm
Response of mAb-2 Binding to hPDGFRβ.mmh Pre-Complexed with mAb-1 (nm) [18]: -0.01 nm
B2: H4H3103S (antibody, human IgG4, V domains shown)
VH: EVQLLQSGGGLVQPGGSLRLSCAASGFTFSHYWMSWVRQGPGKGLEWVATIKKDGSESYYVDSVRGRFTISRDNAKNSLYLQMNSLRTEDTAVYYCARDIVTPNVGYYFGMDVWGQGTTVTVSS
VL: DIQMTQSPSTLSASVGDRVTITCRASQSISSWLSWYQQKPGKAPKLLIYMASTLESGVPSRFSGSGSGTDFTLTITSLQPDDFATYYCQQSNSYSRTFGHGTKLEIK
notes: human IgG4 Fc (H4H prefix)
